In data set [1] the test system is HeLa Kyoto. Kind of data set: solubility in G1/S (NP-40 vs SDS abundance) (log2 ratio); higher = more soluble. The following applies: cell cycle stage: G1/S.
Data set [2] concerns HeLa Kyoto. Kind of data set: melting temperature (median over replicates), in situ; higher = more thermally stable.
The subject of data set [3] is HeLa Kyoto. Kind of data set: solubility change mitosis vs G1/S (difference of NP-40 vs SDS log2 ratios) (log2 ratio difference); higher = more soluble in mitosis.
Data set [4] has as its system HeLa Kyoto. Kind of data set: thermal stability score vs G1/S (z-score of summed log2 fold changes over temperatures); higher = more thermally stable than in G1/S.
[5] abbreviates: cell cycle stage: early G1 (4.5 h after nocodazole release).
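Throughout, for melting temperature (median over replicates), in situ: HeLa Kyoto cells synchronized by double thymidine or nocodazole block, proteins quantified by TMT10plex mass spectrometry, three independent biological replicates.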
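Throughout, for solubility change mitosis vs G1/S (difference of NP-40 vs SDS log2 ratios): synchronized HeLa Kyoto cells (double thymidine block for G1/S, nocodazole release for mitosis), protein amounts in NP-40 versus SDS lysates quantified by mass spectrometry, three biological replicates.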
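Throughout, for solubility in G1/S (NP-40 vs SDS abundance): HeLa Kyoto cells arrested at G1/S by double thymidine block, proteins quantified by TMT10plex mass spectrometry in mild NP-40 versus SDS extracts, three biological replicates.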
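Throughout, for thermal stability score vs G1/S (z-score of summed log2 fold changes over temperatures): synchronized HeLa Kyoto cells, proteins quantified by TMT10plex mass spectrometry, three biological replicates, mitosis taken 0.5 h after nocodazole release, G1/S directly after double thymidine block.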

Turning to “MGCAEGKAVAAAAPTELQTKGKNGDGRRRSAKDHHPGKTLPENPAGFTSTATADSRALLQAYIDGHSVVIFSRSTCTRCTEVKKLFKSLCVPYFVLELDQTEDGRALEGTLSELAAETDLPVVFVKQRKIGGHGPTLKAYQEGRLQKLLKMNGPEDLPKSYDYDLIIIGGGSGGLAAAKEAAQYGKKVMVLDFVTPTPLGTRWGLGGTCVNVGCIPKKLMHQAALLGQALQDSRNYGWKVEETVKHDWDRMIEAVQNHIGSLNWGYRVALREKKVVYENAYGQFIGPHRIKATNNKGKEKIYSAERFLIATGERPRYLGIPGDKEYCISSDDLFSLPYCPGKTLVVGASYVALECAGFLAGIGLDVTVMVRSILLRGFDQDMANKIGEHMEEHGIKFIRQFVPIKVEQIEAGTPGRLRVVAQSTNSEEIIEGEYNTVMLAIGRDACTRKIGLETVGVKINEKTGKIPVTDEEQTNVPYIYAIGDILEDKVELTPVAIQAGRLLAQRLYAGSTVKCDYENVPTTVFTPLEYGACGLSEEKAVEKFGEENIEVYHSYFWPLEWTIPSRDNNKCYAKIICNTKDNERVVGFHVLGPNAGEVTQGFAAALKCGLTKKQLDSTIGIHPVCAEVFTTLSVTKRSGASILQAGCUG [TXNRD1]”, in the data set with HeLa Kyoto [1], the “solubility in G1/S (log2)” value was 0.0191. For the same sequence, the melting temperature in the data set with HeLa Kyoto [2] (cell cycle stage: G1/S) was found to be 52 °C; with HeLa Kyoto [2] (cell cycle stage: mitosis) it was 51.9 °C. For the same sequence, the “solubility change mitosis (log2)” value in the data set on HeLa Kyoto [3] was -0.101. For the same sequence, the thermal stability score was 1.37 in the data set on HeLa Kyoto [4] (setting [5]) and -1.27 with HeLa Kyoto [4] (cell cycle stage: mitosis).

Take “MGCAPSIHVSQSGVIYCRDSDESSSPRQTTSVSQGPAAPLPGLFVQTDAADAIPPSRASGPPSVARVRRARTELGSGSSAGSAAPAATTSRGRRRHCCSSAEAETQTCYTSVKQVSSAEVRIGPMRLTQDPIQVLLIFAKEDSQSDGFWWACDRAGYRCNIARTPESALECFLDKHHEIIVIDHRQTQNFDAEAVCRSIRATNPSEHTVILAVVSRVSDDHEEASVLPLLHAGFNRRFMENSSIIACYNELIQIEHGEVRSQFKLRACNSVFTALDHCHEAIEITSDDHVIQYVNPAFERMMGYHKGELLGKELADLPKSDKNRADLLDTINTCIKKGKEWQGVYYARRKSGDSIQQHVKITPVIGQGGKIRHFVSLKKLCCTTDNNKQIHKIHRDSGDNSQTEPHSFRYKNRRKESIDVKSISSRGSDAPSLQNRRYPSMARIHSMTIEAPITKVINIINAAQENSPVTVAEALDRVLEILRTTELYSPQLGTKDEDPHTSDLVGGLMTDGLRRLSGNEYVFTKNVHQSHSHLAMPITINDVPPCISQLLDNEESWDFNIFELEAITHKRPLVYLGLKVFSRFGVCEFLNCSETTLRAWFQVIEANYHSSNAYHNSTHAADVLHATAFFLGKERVKGSLDQLDEVAALIAATVHDVDHPGRTNSFLCNAGSELAVLYNDTAVLESHHTALAFQLTVKDTKCNIFKNIDRNHYRTLRQAIIDMVLATEMTKHFEHVNKFVNSINKPMAAEIEGSDCECNPAGKNFPENQILIKRMMIKCADVANPCRPLDLCIEWAGRISEEYFAQTDEEKRQGLPVVMPVFDRNTCSIPKSQISFIDYFITDMFDAWDAFAHLPALMQHLADNYKHWKTLDDLKCKSLRLPSDS [PDE8B]”: in the data set on HeLa Kyoto [1], the “solubility in G1/S (log2)” value was -0.134. The melting temperature was found to be 49 °C in the data set with HeLa Kyoto [2] (cell cycle stage: G1/S) and 49.1 °C in the data set with HeLa Kyoto [2] (cell cycle stage: mitosis). In addition, the “solubility change mitosis (log2)” value with HeLa Kyoto [3] is -0.122. Also, the thermal stability score in the data set with HeLa Kyoto [4] (setting [5]) turned out to be 0.505; with HeLa Kyoto [4] (cell cycle stage: mitosis), 0.304.

As for “MGCDGGTIPKRHELVKGPKKVEKVDKDAELVAQWNYCTLSQEILRRPIVACELGRLYNKDAVIEFLLDKSAEKALGKAASHIKSIKNVTELKLSDNPAWEGDKGNTKGDKHDDLQRARFICPVVGLEMNGRHRFCFLRCCGCVFSERALKEIKAEVCHTCGAAFQEDDVIMLNGTKEDVDVLKTRMEERRLRAKLEKKTKKPKAAESVSKPDVSEEAPGPSKVKTGKPEEASLDSREKKTNLAPKSTAMNESSSGKAGKPPCGATKRSIADSEESEAYKSLFTTHSSAKRSKEESAHWVTHTSYCF [RTFDC1]”, the “solubility in G1/S (log2)” value in the data set on HeLa Kyoto [1] was 0.0863. Further, the melting temperature was found to be 47.6 °C with HeLa Kyoto [2] (cell cycle stage: G1/S) and 50.2 °C with HeLa Kyoto [2] (cell cycle stage: mitosis). Further, the “solubility change mitosis (log2)” value in the data set on HeLa Kyoto [3] is -0.0475. In addition, the thermal stability score was determined as 1.24 with HeLa Kyoto [4] (setting [5]) and 2.61 in the data set on HeLa Kyoto [4] (cell cycle stage: mitosis).

With “MGCSAKARWAAGALGVAGLLCAVLGAVMIVMVPSLIKQQVLKNVRIDPSSLSFNMWKEIPIPFYLSVYFFDVMNPSEILKGEKPQVRERGPYVYREFRHKSNITFNNNDTVSFLEYRTFQFQPSKSHGSESDYIVMPNILVLGAAVMMENKPMTLKLIMTLAFTTLGERAFMNRTVGEIMWGYKDPLVNLINKYFPGMFPFKDKFGLFAELNNSDSGLFTVFTGVQNISRIHLVDKWNGLSKVDFWHSDQCNMINGTSGQMWPPFMTPESSLEFYSPEACRSMKLMYKESGVFEGIPTYRFVAPKTLFANGSIYPPNEGFCPCLESGIQNVSTCRFSAPLFLSHPHFLNADPVLAEAVTGLHPNQEAHSLFLDIHPVTGIPMNCSVKLQLSLYMKSVAGIGQTGKIEPVVLPLLWFAESGAMEGETLHTFYTQLVLMPKVMHYAQYVLLALGCVLLLVPVICQIRSQVGAGQRAARADSHSLACWGKGASDRTLWPTAAWSPPPAAVLRLCRSGSGHCWGLRSTLASFACRVATTLPVLEGLGPSLGGGTGS [SCARB1]”, the “solubility in G1/S (log2)” value with HeLa Kyoto [1] is 0.27. The melting temperature with HeLa Kyoto [2] (cell cycle stage: G1/S) worked out at 56.6 °C; with HeLa Kyoto [2] (cell cycle stage: mitosis) it was 63.1 °C. The “solubility change mitosis (log2)” value in the data set on HeLa Kyoto [3] was -0.0198. Moreover, the thermal stability score in the data set with HeLa Kyoto [4] (setting [5]) was -1.41; in the data set with HeLa Kyoto [4] (cell cycle stage: mitosis), -1.54.

Consider “MGCTVSAEDKAAAERSKMIDKNLREDGEKAAREVKLLLLGAGESGKSTIVKQMKIIHEDGYSEEECRQYRAVVYSNTIQSIMAIVKAMGNLQIDFADPSRADDARQLFALSCTAEEQGVLPDDLSGVIRRLWADHGVQACFGRSREYQLNDSAAYYLNDLERIAQSDYIPTQQDVLRTRVKTTGIVETHFTFKDLHFKMFDVGGQRSERKKWIHCFEGVTAIIFCVALSAYDLVLAEDEEMNRMHESMKLFDSICNNKWFTDTSIILFLNKKDLFEEKITHSPLTICFPEYTGANKYDEAASYIQSKFEDLNKRKDTKEIYTHFTCATDTKNVQFVFDAVTDVIIKNNLKDCGLF [GNAI2]”, for which the “solubility in G1/S (log2)” value with HeLa Kyoto [1] was -0.568. Further, the melting temperature with HeLa Kyoto [2] (cell cycle stage: G1/S) was 53.5 °C; in the data set with HeLa Kyoto [2] (cell cycle stage: mitosis) it was 54.2 °C. The “solubility change mitosis (log2)” value with HeLa Kyoto [3] is -0.242. In addition, the results for the thermal stability score with HeLa Kyoto [4] (setting [5]) and in the data set on HeLa Kyoto [4] (cell cycle stage: mitosis) were 0.395 and 0.061, respectively.

For the origin of these results see the supplement of paper PMC5998384.
